In general, Kd refers to a measure of binding affinity in units of concentration. Higher therefore signals lower affinity.

Assay [1] deals with NU205. Kind of assay: mass spectrometry of G3BP1-GFP interactome. The conditions noted are these: HEK293T G3BP1/2 DKO cells; read off a plot.
For assay [2], the target named is PABP4. Kind of assay: mass spectrometry of G3BP1-GFP interactome. The conditions noted are these: HEK293T G3BP1/2 DKO cells; read off a plot.
Assay [3] addresses NUP93. Kind of assay: mass spectrometry of G3BP1-GFP interactome. The settings on record: HEK293T G3BP1/2 DKO cells; read off a plot.
Assay [4] has as its target RS3. The experiment in a line: mass spectrometry of G3BP1-GFP interactome. The conditions noted are these: HEK293T G3BP1/2 DKO cells; read off a plot.
Assay [5] addresses RBP2. Kind of assay: mass spectrometry of G3BP1-GFP interactome. The settings on record: HEK293T G3BP1/2 DKO cells; read off a plot.
The target in assay [6] is IMB1. The experiment in a line: mass spectrometry of G3BP1-GFP interactome. The conditions noted are these: HEK293T G3BP1/2 DKO cells; read off a plot.
Assay [7] has as its target NUFP2. The experiment in a line: mass spectrometry of G3BP1-GFP interactome. The conditions noted are these: HEK293T G3BP1/2 DKO cells; read off a plot.
The target in assay [8] is PABP1. The experiment in a line: mass spectrometry of G3BP1-GFP interactome. The settings on record: HEK293T G3BP1/2 DKO cells; read off a plot.
Assay [9] has as its target P121A. Kind of assay: mass spectrometry of G3BP1-GFP interactome. The settings on record: HEK293T G3BP1/2 DKO cells; read off a plot.
In assay [10] the target is P121C. Kind of assay: mass spectrometry of G3BP1-GFP interactome. The conditions noted are these: HEK293T G3BP1/2 DKO cells; read off a plot.
Assay [11] has as its target DDX6. Kind of assay: mass spectrometry of G3BP1-GFP interactome. The settings on record: HEK293T G3BP1/2 DKO cells; read off a plot.
Assay [12] deals with PRC2C. Kind of assay: mass spectrometry of G3BP1-GFP interactome. The settings on record: HEK293T G3BP1/2 DKO cells; read off a plot.
Assay [13] has as its target TRAP1. Kind of assay: mass spectrometry of G3BP1-GFP interactome. The conditions noted are these: HEK293T G3BP1/2 DKO cells; read off a plot.
Assay [14] addresses GST-NTF2L (GST-tagged NTF2-like domain of G3BP1) (human). Kind of assay: SPR. For orientation: Surface plasmon resonance follows binding to a sensor surface in real time, without labels.

Sequence of N-WT (1–25) peptide (P0DTC9 1-25): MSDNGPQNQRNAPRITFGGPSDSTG

Turning to G3BP1-EGFP (from UniProt Q13283) F33W, the other: Log2(fold change) is 8.7 in assay [1]; -8.9 in assay [2]; 8.4 in [3]; -6.4 in assay [4]; 8.9 in assay [5]; 6.7 in [6]. The other: Log2(fold change) is -9.7 in assay [7], -4.1 in assay [8], 2.9 in assay [9] and 2.5 in [10].
For the substance G3BP1-EGFP (from UniProt Q13283) F112A, the other: Log2(fold change) in [11] is -2.7; in [12], 5.8.
Consider G3BP1-EGFP (from UniProt Q13283) F124W, for which the other: Log2(fold change) in [13] is 6; in assay [6], 6.2.
Consider G3BP1-EGFP (from UniProt Q13283) V11A, for which the other: Log2(fold change) in assay [11] is -2.3.
On to “N-WT (1–25) peptide (from UniProt P0DTC9 1-25)”, for which the Kd in [14] was found to be 1.14 µM. This lies in the single-digit micromolar range.

The record behind these values is PMC11044841.
